Data reported in the supplement of paper PMC9732359.
± gives the uncertainty stated by the source.

Experiment: protein stability index of a GFP-peptide fusion (yeast GPS) (PSI 1-4); higher = more stable; sorted into four equal gates, so the index is relative within each strain
In short: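 Sequencing reads from sorted gates were used to score each peptide. The library consisted of tiled 17-residue yeast protein peptides fused downstream of GFP on a Cherry-expressing plasmid, pooled and carried in yeast. Mid-log cultures in leucine-free medium were split into four equal gates by GFP/Cherry ratio, and each gate's plasmids were PCR-amplified and Illumina-sequenced. The protein stability index adds up, over all gates, the read frequency multiplied by the gate number.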

Sequence	protein stability index (doa10∆)	protein stability index (pdr5∆)	protein stability index (san1∆)	protein stability index (ubr1∆)
ASKSGKLTQKLVTAGVA [CYT1]	1.85 ± 0.068	1.83 ± 0.057	2.45 ± 0.062	1.95 ± 0.048
NVDNQTSDLVKSLGLKL [RPS17A]	3.2 ± 0.087	3.29 ± 0.084	3.35 ± 0.066	3.06 ± 0.075
ESLSEEHASLLVRDSKP [MED8]	2.53 ± 0.084	3.04 ± 0.12	2.69 ± 0.086	2.59 ± 0.099
ADNGEEYLTLNDFNDLN [MED2]	2.96 ± 0.23	3.3 ± 0.14	3.55 ± 0.12	3.27 ± 0.082
RHTTGTGRMRYLKHVSR [RPL37A]	3.14 ± 0.11	3.26 ± 0.081	3.55 ± 0.081	3.1 ± 0.11
VVVIDGKGHLVGRLASV [RPL16A]	1.66 ± 0.065	1.64 ± 0.054	1.71 ± 0.1	1.97 ± 0.052
WSEITESMSYLPDPILK [MCD1]		2.97 ± 0.18	2.92 ± 0.23	2.64 ± 0.1
DNKDKEGNAGGDQKTSE [YOR098C/NUP1]		3.6 ± 0.17	3.19 ± 0.17	3.35 ± 0.074
TINISLSFSWAILLIIN [NUT1]	1.35 ± 0.06	1.61 ± 0.054	1.93 ± 0.078	2.43 ± 0.044
GMTKSNIYNFSPSERIE [BRR2]	3.18 ± 0.082	3.38 ± 0.082	3.01 ± 0.19	2.96 ± 0.059
LVQKTVQESGNIDYQKG [GRR1]	3.5 ± 0.1	3.37 ± 0.095	3.2 ± 0.09	3.23 ± 0.1
NNVTSNPSEFTPNMVNS [SSN2]	2.93 ± 0.063	3.03 ± 0.053	2.66 ± 0.09	3.1 ± 0.05
EGYQNDINTIKLQLSFV [SRP72]	3.12 ± 0.21	2.73 ± 0.088	2.1 ± 0.26	3.07 ± 0.14
KNTMFEKSDALVGVYRQ [SMC1]	3.27 ± 0.18	2.88 ± 0.11	2.7 ± 0.081	2.94 ± 0.23
VRNTAPNIRELGVKNLG [YCG1]	2.88 ± 0.2	3.29 ± 0.22		2.98 ± 0.13
TLTDILEDELYHTNPGH [RPN4]	3.04 ± 0.055	3.25 ± 0.049	3.1 ± 0.064	3.21 ± 0.043
LIEKLQGFSKDTFELIK [YDL116W/NUP84]	3.21 ± 0.12	3.22 ± 0.093	3.29 ± 0.064	3.08 ± 0.07
ANNNINSASSAPTPAAP [SWI1]	2.99 ± 0.064	2.88 ± 0.077	3.05 ± 0.078	2.97 ± 0.064
KCVVIHNGSHRTVAGFS [ARP7]	2.67 ± 0.051	2.74 ± 0.048	2.54 ± 0.051	2.67 ± 0.035
SKNLGEINTALNTLLVT [SWI1]	1.23 ± 0.077	1.79 ± 0.054	1.57 ± 0.11	1.46 ± 0.066
LLYYIPSLELSAEYLQM [YJR042W/NUP85]	1.12 ± 0.09	2.03 ± 0.18	1.45 ± 0.29	1.15 ± 0.12
IREINYTMSNHGMSVDP [RPO31]	2.87 ± 0.16	3.03 ± 0.2	3.03 ± 0.11	3.06 ± 0.13
LEKGEIELSDGSTFKVN [YJL039C/NUP192]	3.02 ± 0.079	3.1 ± 0.067	2.83 ± 0.073	2.95 ± 0.052
GINKNEEYRKQLDKKNE [SMC1]	3.22 ± 0.12	2.62 ± 0.069	2.3 ± 0.082	2.58 ± 0.045
SVKPHVVEPEHMADAKI [SIR4]	2.68 ± 0.14	2.92 ± 0.14	3.1 ± 0.1	3 ± 0.17
SVLNPFLLRRVKADVEK [ISW2]	1.15 ± 0.14	1.09 ± 0.068	1.18 ± 0.15	1.31 ± 0.12
KQNEQLHVEQLSGGQKT [SMC3]	2.07 ± 0.095	2.71 ± 0.099	2.19 ± 0.1	2.19 ± 0.053

Sequence	protein stability index (doa10∆)	protein stability index (pdr5∆)	protein stability index (san1∆)	protein stability index (ubr1∆)
HSISEAENMLEELRGQQ [SMC4]	3.27 ± 0.094	2.52 ± 0.18	3.35 ± 0.068	3.2 ± 0.079
GSTLNVSQMVAVVGQQI [RPO31]	3.15 ± 0.14	2.94 ± 0.1	2.84 ± 0.16	2.82 ± 0.15
MGKGKPRGLNSARKLRV [RPS23A]	2.4 ± 0.089	3.05 ± 0.08	2.96 ± 0.094	2.79 ± 0.072
NVFGQDNEDSDNLFGET [SWI3]	3.37 ± 0.13	3.7 ± 0.13	3.23 ± 0.12	3.5 ± 0.094
QKKNFLFKPLNKTLTLD [ARP7]	2.83 ± 0.093	2.45 ± 0.14	2.08 ± 0.25	1.89 ± 0.26
TSLQGTYEAIEITDAYC [YMR129W/POM152]	2.63 ± 0.053	2.86 ± 0.059	2.74 ± 0.049	2.52 ± 0.038
WRILKEDYAIVTKGGTV [PRP28]	3.47 ± 0.27	3.2 ± 0.29	3.26 ± 0.11	3.41 ± 0.17
VDIVNQWFLQYQNQFVE [YML103C/NUP188]	1.79 ± 0.055	2.1 ± 0.054	1.81 ± 0.065	2.29 ± 0.042
GQRTAYHSKRDASTPLR [RPB2]	3.32 ± 0.092	3.1 ± 0.11	3.12 ± 0.066	3.25 ± 0.071
VNITKFSKFERSKSSHK [SKI6]	2.73 ± 0.095	2.65 ± 0.059	2.76 ± 0.064	2.62 ± 0.048
IVDFTLPPPPPPPGLDE [PRP8]	3.15 ± 0.05	3.1 ± 0.048	3.2 ± 0.038	3.14 ± 0.039
TKQASSFSFLNRADGTG [YLR335W/NUP2]				1.45 ± 0.2
DTFELIKTFLVDLTSSN [YDL116W/NUP84]	2.69 ± 0.07	3.19 ± 0.073	2.55 ± 0.08	3.1 ± 0.046
LDLMFDEVYVQNSKFLK [YJL039C/NUP192]	2.94 ± 0.066	2.94 ± 0.055	2.87 ± 0.071	2.87 ± 0.034
RKIKRLEKFLQGRDTSK [SRP72]	2.79 ± 0.1	2.16 ± 0.059	2.14 ± 0.12	2.76 ± 0.048
DAIWSLVFQLAKNFSAQ [SRB8]	2.08 ± 0.049	2.56 ± 0.053	2.4 ± 0.054	2.61 ± 0.041
EALVERRRAFKRSQKKH [RPB4]	3.12 ± 0.099	3.2 ± 0.081	3.22 ± 0.062	3.31 ± 0.11
PDGLGEVGMKVQSGQIY [RET1]	3.27 ± 0.14	3.15 ± 0.12	2.91 ± 0.094	3.21 ± 0.25
KRGEVVKIIRKSETSGR [RPB5]	3.04 ± 0.082	3.17 ± 0.057	3.2 ± 0.064	3.05 ± 0.058
ARKGLTPSQIGVLLRDA [RPS13]	2.91 ± 0.26		2.09 ± 0.21	2.32 ± 0.041
ASSSAKLIEKKSAYANT [SMC2]	2.82 ± 0.1	2.55 ± 0.055	2.73 ± 0.079	2.79 ± 0.042
AFVKQKNDSLEKTINDL [YIL149C/MLP2]	3.1 ± 0.11	3.19 ± 0.11	3.02 ± 0.14	3.11 ± 0.12
FRLIDTGALINNLEPRQ [RPN11]	2.81 ± 0.23	3.18 ± 0.24		
LDNLKLKELRIDNSPQA [GRR1]	2.65 ± 0.054	2.72 ± 0.07	2.69 ± 0.07	2.94 ± 0.042
CLDRCKEQYNRYRDLMI [MTR3]	2.64 ± 0.074	2.62 ± 0.046	2.69 ± 0.054	2.88 ± 0.063
RAANQGALPPDLSLIVK [CYT1]	2.95 ± 0.11	3 ± 0.074	3.03 ± 0.18	2.87 ± 0.074
